From patent publication US20130336980A1 (Janssen / Centocor, published 2013)
Read-outs that look alike come from different tables or passages of the source.

Legend:
[1] = biological target: T1, human ST2L extracellular domain with C-terminal His6 tag (human, UniProt Q01638 19-328); assay: MSD electrochemiluminescence competition assay on plate-coated ST2L-ECD; unlabeled antibody titrated against 30 nM sulfo-tag labeled C2244 Fab
T1 construct: also called huST2L-ECD; ST2L-ECD
T1 sequence: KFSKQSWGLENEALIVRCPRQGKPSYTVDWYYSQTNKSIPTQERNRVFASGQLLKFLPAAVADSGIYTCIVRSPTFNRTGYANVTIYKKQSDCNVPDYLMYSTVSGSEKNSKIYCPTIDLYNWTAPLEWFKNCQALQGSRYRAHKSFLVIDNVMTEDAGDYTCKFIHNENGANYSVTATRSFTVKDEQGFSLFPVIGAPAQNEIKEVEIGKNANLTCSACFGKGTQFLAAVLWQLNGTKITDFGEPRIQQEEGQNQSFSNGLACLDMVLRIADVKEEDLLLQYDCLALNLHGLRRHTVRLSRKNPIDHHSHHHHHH
Experimental: Competition binding assays were performed to evaluate different binding epitope groups for anti-ST2L mAbs. 5 μl (10 μg/ml) of ST2L-ECD protein was coated on MSD HighBind plate (Meso Scale Discovery, Gaithersburg, Md.) per well for 2 hr at room temperature. One-hundred and fifty microliters of 5% MSD Blocker A buffer (Meso Scale Discovery, Gaithersburg, Md.) was added to each well and incubated for 2 hr at room temperature. Plates were washed three times with 0.1 M HEPES buffer, pH 7.4, followed by the addition of the mixture of the MSD fluorescence dye (sulfo tag, NHS ester) labeled individual anti-ST2L antibody with different competitors. Labeled antibody, 10 or 30 nM, was incubated with increasing concentrations of competitor antibodies, from 1 nM to 2 or 5 μM, and then added to the designated wells in a volume of 25 μL mixture. After 2-hour incubation with gentle shaking at room temperature, plates were washed 3 times with 0.1M HEPES buffer (pH 7.4). MSD Read Buffer T was diluted with distilled water (4-fold) and dispensed at a volume of 150 μL/well and analyzed with a SECTOR Imager 6000.

18AKF20-->TEG = assay: SPR, ProteOn XPR36, 25 C: mAb captured on anti-Fc surface, ST2L-D1D2 (HH-ST2L) wild type or variant injected, 1:1 model
[2] = biological target: T1, human ST2L extracellular domain with …; assay: SPR, captured mAb, ST2L-ECD analyte
[3] = biological target: T2, cynomolgus ST2L extracellular domain with C-terminal His6 tag (Macaca fascicularis (cyno), UniProt Q01638 19-321 (human entry)); assay: SPR, captured mAb, ST2L-ECD analyte
T2 construct: also called cynoST2L-ECD; cyno ST2L
T2 chain: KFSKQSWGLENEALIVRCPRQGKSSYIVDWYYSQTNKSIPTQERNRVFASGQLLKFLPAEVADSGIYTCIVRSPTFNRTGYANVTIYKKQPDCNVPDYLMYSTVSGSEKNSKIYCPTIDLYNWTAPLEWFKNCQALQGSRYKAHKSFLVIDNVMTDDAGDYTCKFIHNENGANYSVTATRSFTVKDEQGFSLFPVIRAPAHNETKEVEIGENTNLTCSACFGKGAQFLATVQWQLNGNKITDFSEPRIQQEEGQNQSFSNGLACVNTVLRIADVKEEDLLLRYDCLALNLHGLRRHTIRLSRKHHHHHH

human ST2L on cells = biological target: T3, human ST2L on cells (human, UniProt Q01638 19-556); assay: cell-based or functional assay
T3 sequence: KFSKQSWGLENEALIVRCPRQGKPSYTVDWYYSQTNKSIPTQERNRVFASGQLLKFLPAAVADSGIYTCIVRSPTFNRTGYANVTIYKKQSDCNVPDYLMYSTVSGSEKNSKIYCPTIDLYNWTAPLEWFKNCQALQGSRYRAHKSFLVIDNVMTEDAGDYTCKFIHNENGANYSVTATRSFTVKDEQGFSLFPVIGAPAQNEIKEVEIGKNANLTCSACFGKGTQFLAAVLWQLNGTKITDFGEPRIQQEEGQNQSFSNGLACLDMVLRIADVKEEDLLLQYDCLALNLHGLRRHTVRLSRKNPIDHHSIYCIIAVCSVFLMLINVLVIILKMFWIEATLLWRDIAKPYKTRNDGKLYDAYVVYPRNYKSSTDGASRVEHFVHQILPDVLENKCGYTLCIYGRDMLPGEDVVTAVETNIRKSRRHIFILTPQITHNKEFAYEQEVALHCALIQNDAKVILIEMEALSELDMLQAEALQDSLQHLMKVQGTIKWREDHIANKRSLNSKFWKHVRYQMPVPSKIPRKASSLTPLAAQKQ

[4] = biological target: T1, human ST2L extracellular domain with …; assay: SPR, captured mAb, ST2L-ECD analyte; remark: listed apart in the source
Experimental: (§1) The interactions of anti-ST2L antibodies with His₆-tagged human ST2L-ECD and His₆-tagged cyno ST2L-ECD were studied by ProteOn using a ProteOn XPR36 at 25° C. A biosensor surface was prepared by coupling goat anti-human IgG Fcγ fragment specific antibody (Ab) to the surface of a GLC sensor chip using the manufacturer instructions for amine-coupling chemistry. The coupling buffer was 10 mM sodium acetate, pH 4.5. The goat anti-human IgG Fcγ (about 4500 response units) was immobilized in the horizontal orientation. The anti-ST2L antibodies were provided purified, or in crude supernatants. In either case these antibodies were diluted in PRB (PBS pH 7.4, supplemented with, 3 mM EDTA, and 0.005% Tween 20) to a concentration of about 0.5 μg/mL. The antibodies were captured (60-130 RU) in the vertical orientation onto the anti-human Fcγ antibody-modified GLC chip. Capture of anti-ST2L mAbs was followed by injection of huST2L ECD in solution (0.024 to 15 nM in 5-fold dilutions) or cynoST2L ECD in solution (0.020-5 nM in 4-fold dilutions) in the horizontal orientation. The association was monitored for 4 minutes in all experiments (200 μL injected at 50 μL/min). The dissociation was monitored for 30 minutes. Regeneration of the sensor surface was obtained with three 15 sec pulses of 10 mM glycine pH 1.5. The data were fit using the ProteOn software and using a 1:1 binding model with mass transfer.

[5] = biological target: T2, cynomolgus ST2L extracellular domain …; assay: SPR, captured mAb, ST2L-ECD analyte
Experimental: as §1

[6] = biological target: T1, human ST2L extracellular domain with …; assay: RLB ELISA, inhibition of biotin-IL-33 binding to coated huST2L-ECD

B1: STLM15 (antibody, human IgG2, V domains shown)
VH: EVQLQESGPGLVKPSQSLSLTCTVTGFSITSDYAWNWIRQFPGSKLEWMGFISYSGDTSFNPSLKSRISVTRDTSKNQFFLQLNSVTTEDTATYYCASYDGYSFDYWGQGTTLTVSS
VL: DIVLTQSPASLAISLGQRATISCRASKSVSTSGSSYMFWYQQKPGQPPKLLIYLASNLESGVPARFSGSGSGTDFTLNIHPVEEEDAAAYYCQHSREIPYTFGGGTKLEIK
notes: Mouse hybridoma C2244 V regions cloned into human IgG2 background = STLM15; also called C2244; C2244/STLM15
B1 was tested, and the “IC50 (read off the curve)” value [1] was about 100000 pM.

B2: STLM208 (antibody, V domains shown)
VH: EVQLLESGGGLVQPGGSLRLSCAASGFTFSIYDMIWVRQAPGKGLEWVSSIRGEGGGTYYADSVKGRFTISRDNSKNTLYLQMNSLRAEDTAVYYCARDPWSTEGSFFVLDYWGQGTLVTVSS
VL: EIVLTQSPATLSLSPGERATLSCRASQSVDDDLAWYQQKPGQAPRLLIYDASNRATGIPARFSGSGSGTDFTLTISSLEPEDFAVYYCQQYITAPLTFGQGTKVEIK
Binder B2 has a Kd (18AKF20-->TEG) of 19.3 pM, a koff (18AKF20-->TEG) of 0.000229 s⁻¹ and a kon (18AKF20-->TEG) of 1.3e+07 M⁻¹ s⁻¹.

B3: ST2M50 (antibody, V domains shown)
VH: EVQLVQSGAEVKKPGESLKISCKGSGYSFTSYWIGWVRQMPGKGLEWMGIIYPGDSYTRYSPSFQGQVTISADKSISTAYLQWSSLKASDTAMYYCARLSGRFDYWGQGTLVTVSS
VL: EIVLTQSPATLSLSPGERATLSCRASQSVSNALAWYQQKPGQAPRLLIYFASNRATGIPARFSGSGSGTDFTLTISSLEPEDFAVYYCQQFFNWPITFGQGTKVEIK
B3 gave a Kd [2] of 45 pM, a koff [2] of 5.1e-05 s⁻¹ and a kon [2] of 1.15e+06 M⁻¹ s⁻¹. The Kd [3] was 124 pM, the koff [3] was 0.00249 s⁻¹ and the kon [3] was 2.01e+07 M⁻¹ s⁻¹.

B4: STLM206 (antibody, V domains shown)
VH: EVQLLESGGGLVQPGGSLRLSCAASGFTFSIYDMIWVRQAPGKGLEWVSTIRGEGGSTYYADSVKGRFTISRDNSKNTLYLQMNSLRAEDTAVYYCARDPWSTEGSFFVLDYWGQGTLVTVSS
VL: EIVLTQSPATLSLSPGERATLSCRASQSVDDDLAWYQQKPGQAPRLLIYDASNRATGIPARFSGSGSGTDFTLTISSLEPEDFAVYYCQQYITAPLTFGQGTKVEIK
notes: IgG; VH3-23 / Vk-L6 frameworks
For B4, the “RGA IC50” value (human ST2L on cells) was 0.67 µg/mL, the Kd [4] was 25 pM and the koff [4] was 0.00016 s⁻¹. It also gave a kon [4] of 6.39e+06 M⁻¹ s⁻¹, a Kd [5] of 6 pM and a koff [5] of 0.000583 s⁻¹. The kon [5] was 9.4e+07 M⁻¹ s⁻¹ and the IC50 [6] was 0.4 µg/mL.
